Experimental data taken from patent US20160177307.

Target: PDGF-BB (platelet-derived growth factor BB) (Homo sapiens) (UniProt P01127)
Assay: filter
[1] = all Z are BndU, rest DNA, SB18T, 37 C
[2] = all P are NapdU, rest DNA, SB18T, 37 C

PDGF-BB (platelet-derived growth factor BB) (Homo sapiens), sequence (P01127 82-190): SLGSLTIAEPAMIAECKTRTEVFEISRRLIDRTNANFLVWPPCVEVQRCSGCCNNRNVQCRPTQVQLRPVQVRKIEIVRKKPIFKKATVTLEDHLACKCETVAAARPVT

ACACGCGTTTATAGCGTCAACCCGAGTGAACA [4149-8_19]
Kd [1]: 74 nM

ACAGCATGTATGCACATCTAGAGGCTACCCAGTGAA [5169-4_14]
Kd [2]: 0.17 nM

ACTACGTTACACGCGTTTATAGCGTCAACCCGAGTGAACA [4149-8_15]
Kd (Bn-dU): > 10 nM

ATCTCTTACGACTACGTTACACGCGTTTATAGCGTC [4149-8_10]
Kd [1]: 0.05 nM

ATCTCTTACGACTACGTTACACGCGTTTATAGCGTCAA [4149-8_9]
Kd [1]: 0.03 nM

ATCTCTTACGACTACGTTACACGCGTTTATAGCGTCAACCCG [4149-8_7]
Kd [1]: 0.02 nM

ATCTCTTACGACTACGTTACACGCGTTTATAGCGTCAACCCGAGTG [4149-8_5]
Kd [1]: 0.02 nM

ATCTCTTACGACTACGTTACACGCGTTTATAGCGTCAACCCGAGTGAACA [4149-8_2]
Kd (all Z are BndU (5-(N-benzylcarboxamide)-2'-deoxyuridine), rest DNA, SB18T, 37 C, Zorbax partition): 0.05 nM

CACAGCATGTATGCACATCT [5169-4_60]
Kd (C3 spacer at 2, NapdU at 9,11,13,19,21, C3 spacer walk): 27 nM

CAGCATGTATGCACATCTAGAGGCTACCCAGTGAATGAGGA [5169-4_6]
Kd [2]: 67 nM

CCTCGACAGCATGTATGCACATCTAGAGGCTACCCAGTGAATGAGGA [5169-4_4]
Kd (NapdU at P, SB18T, 37 C): 0.027 nM

CGAAGCATGTATGCACATCT [5169-4_62]
Kd (C3 spacer at 4, NapdU at 9,11,13,19,21, C3 spacer walk): 42 nM

CGACACATGTATGCACATCT [5169-4_64]
Kd (C3 spacer at 6, NapdU at 9,11,13,19,21, C3 spacer walk): 0.054 nM

CGACAGATGTATGCACATCT [5169-4_65]
Kd (NapdU at P, C3 spacer at 7): 0.074 nM

CGACAGCATGTATCACATCT [5169-4_72]
Kd (C3 spacer at 14, NapdU at 9,11,13,19,21, C3 spacer walk): 230 nM

CGACAGCATGTATGACATCT [5169-4_73]
Kd (C3 spacer at 15, NapdU at 9,11,13,19,21, C3 spacer walk): 0.015 nM

CGACAGCATGTATGCAATCT [5169-4_75]
Kd (NapdU at P, C3 spacer at 17): 0.14 nM

CGACAGCATGTATGCACATCT [5169-4_33]
Kd (NapdU at P, 2'-OMe 1): 0.027 nM

CGACAGCATGTATGCACATCT [5169-4_34]
Kd (NapdU at P, 2'-OMe 4): 0.033 nM

CGACAGCATGTATGCACATCT [5169-4_35]
Kd (NapdU at P, 2'-OMe 7): 0.016 nM

CGACAGCATGTATGCACATCT [5169-4_36]
Kd (NapdU at P, 2'-OMe 15): 0.028 nM

CGACAGCATGTATGCACATCT [5169-4_37]
Kd (NapdU at P, 2'-OMe 17): 0.041 nM

CGACAGCATGTATGCACATCT [5169-4_38]
Kd (NapdU at P, 2'-OMe 20): 0.022 nM

CGACAGCATGTATGCACATCT [5169-4_39]
Kd (NapdU at P, 2'-OMe 2): 0.058 nM

CGACAGCATGTATGCACATCT [5169-4_40]
Kd (NapdU at P, 2'-OMe 6): 0.024 nM

CGACAGCATGTATGCACATCT [5169-4_41]
Kd (NapdU at P, 2'-OMe 10): 0.097 nM

CGACAGCATGTATGCACATCT [5169-4_42]
Kd (2'-OMe G14, NapdU at 9,11,13,19,21, 2'-OMe substitution): 0.0069 nM

CGACAGCATGTATGCACATCT [5169-4_43]
Kd (NapdU at P, 2'-OMe 3): 0.16 nM

CGACAGCATGTATGCACATCT [5169-4_44]
Kd (2'-OMe A5, NapdU at 9,11,13,19,21, 2'-OMe substitution): 0.53 nM

CGACAGCATGTATGCACATCT [5169-4_45]
Kd (2'-OMe A8, NapdU at 9,11,13,19,21, 2'-OMe substitution): 0.93 nM

CGACAGCATGTATGCACATCT [5169-4_46]
Kd (NapdU at P, 2'-OMe 12): 0.093 nM

CGACAGCATGTATGCACATCT [5169-4_47]
Kd (NapdU at P, 2'-OMe 16): 0.016 nM

CGACAGCATGTATGCACATCT [5169-4_48]
Kd (NapdU at P, 2'-OMe 18): 0.014 nM

CGACAGCATGTATGCACATCT [5169-4_49]
Kd (NapdU at P, 2'-OMe 9): 0.53 nM

CGACAGCATGTATGCACATCT [5169-4_50]
Kd (NapdU at P, 2'-OMe 11): 0.047 nM

CGACAGCATGTATGCACATCT [5169-4_51]
Kd (NapdU at P, 2'-OMe 13): 0.32 nM

CGACAGCATGTATGCACATCT [5169-4_52]
Kd (NapdU at P, 2'-OMe 19): 0.31 nM

CGACAGCATGTATGCACATCT [5169-4_53]
Kd (NapdU at P, 2'-OMe 21): 0.022 nM

CGACAGCATGTATGCACATCT [5169-4_54]
Kd (NapdU at 11,13,19,21, dT at 9, dT substitution): 44 nM

CGACAGCATGTATGCACATCT [5169-4_55]
Kd (NapdU at 9,13,19,21, dT at 11, dT substitution): 7.8 nM

CGACAGCATGTATGCACATCT [5169-4_57]
Kd (NapdU at 9,11,13,21, dT at 19, dT substitution): 120 nM

CGACAGCATGTATGCACATCT [5169-4_80]
Kd (NapdU at P, 2'-OMe 7,16,18): 0.0061 nM

CGACAGCATGTATGCACATCT [5169-4_81]
Kd (NapdU at P, 2'-OMe 7,14,16,18): 0.0049 nM

CGACAGCATGTATGCACATCT [5169-4_82]
Kd (NapdU at 9,11,13,19, 2'-OMe at G6,C7,G14,A16,A18,C20 and 2'-OMe-NapU21, SB18T, 37 C): 0.0016 nM

CGACAGCATGTATGCACATCT [5169-4_83]
Kd (NapdU at P, 2'-OMe 1,6,7,14,15,16,18,20,21): 0.0021 nM

CGACAGCATGTATGCACATCT [5169-4_86]
Kd (NapdU at P, 2'-OMe 1,2,4,6,7,11,14-18,20,21): 0.064 nM

CGACAGCATGTATGCACATCT [5169-4_92]
Kd (NapdU at P, 2'-OMe 1,7,15,16,18,20,21): 0.0052 nM

CGACAGCATGTATGCACATCT [5169-4_105]
Kd (NapdU at P, 2'-OMe 6,18,20): 0.0061 nM

CGACAGCATGTATGCACATCT [5169-4_106]
Kd (NapdU at P, 2'-OMe 1,18,20): 0.016 nM

CGACAGCATGTATGCACATCT [5169-4_107]
Kd (NapdU at P, 2'-OMe 1,6,18): 0.013 nM

CGACAGCATGTATGCACATCT [5169-4_108]
Kd (NapdU at P, 2'-OMe 1,6,14): 0.012 nM

CGACAGCATGTATGCACATCT [5169-4_109]
Kd (NapdU at P, 2'-OMe 1,6,16): 0.011 nM

CGACAGCATGTATGCACATCT [5169-4_110]
Kd (NapdU at P, 2'-OMe 1,14,16): 0.005 nM

CGACAGCATGTATGCACATCT [5169-4_111]
Kd (NapdU at P, 2'-OMe 7,14,16): 0.0048 nM

CGACAGCATGTATGCACATCT [5169-4_113]
Kd (NapdU at P, 2'-OMe 7,16,21): 0.012 nM

CGACAGCATGTATGCACATCT [5169-4_114]
Kd (NapdU at P, 2'-OMe 7,17,21): 0.038 nM

CGACAGCATGTATGCACATCT [5169-4_115]
Kd (NapdU at P, 2'-OMe 4,7,21): 0.024 nM

CGACAGCATGTATGCACATCT [5169-4_116]
Kd (NapdU at P, 2'-OMe 4,17,21): 0.093 nM

CGACAGCATGTATGCACATCT [5169-4_117]
Kd (NapdU at P, 2'-OMe 4,12,17): 0.71 nM

CGACAGCATGTATGCACATCT [5169-4_118]
Kd (NapdU at P, 2'-OMe 2,4,17): 0.56 nM

CGACAGCATGTATGCACATCT [5169-4_123]
Kd (NapdU at P, 2'-OMe 1,20,21): 0.03 nM

CGACAGCATGTATGCACATCT [5169-4_124]
Kd (NapdU at P, 2'-OMe 5,20,21): 0.6 nM

CGACAGCATGTATGCACATCT [5169-4_125]
Kd (NapdU at P, 2'-OMe 1,5,20): 1 nM

CGACAGCATGTATGCACATCT [5169-4_127]
Kd (NapdU at P, 2'-OMe 16,17,18): 0.01 nM

CGACAGCATGTATGCACATCT [5169-4_128]
Kd (NapdU at P, 2'-OMe 13,14,15): 0.099 nM

CGACAGCATGTATGCACATCT [5169-4_130]
Kd (NapdU at P, 2'-OMe 7,8,9): 4.5 nM

CGACAGCATGTATGCACATCT [5169-4_131]
Kd (NapdU at P, 2'-OMe 4,5,6): 0.64 nM

CGACAGCATGTATGCACATCT [5169-4_132]
Kd (NapdU at P, 2'-OMe 1,2,3): 0.42 nM

CGACAGCATGTATGCACATCT [5169-4_150]
Kd (as 5169-4_146, PS 2, 3' inverted dT): 0.013 nM

CGACAGCATGTATGCACATCT [5169-4_151]
Kd (as 5169-4_146 plus PS 3' of A3, 3'-idT): 0.006 nM

CGACAGCATGTATGCACATCT [5169-4_152]
Kd (as 5169-4_146, PS 5, 3' inverted dT): 0.015 nM

CGACAGCATGTATGCACATCT [5169-4_153]
Kd (as 5169-4_146, PS 8, 3' inverted dT): 0.013 nM

CGACAGCATGTATGCACATCT [5169-4_154]
Kd (as 5169-4_146 plus PS 3' of P9, 3'-idT, 1.8-fold weaker than parent): 0.026 nM

CGACAGCATGTATGCACATCT [5169-4_155]
Kd (as 5169-4_146, PS 10, 3' inverted dT): 0.0069 nM

CGACAGCATGTATGCACATCT [5169-4_156]
Kd (as 5169-4_146, PS 11, 3' inverted dT): 0.0078 nM

CGACAGCATGTATGCACATCT [5169-4_157]
Kd (as 5169-4_146, PS 12, 3' inverted dT): 0.018 nM

CGACAGCATGTATGCACATCT [5169-4_158]
Kd (as 5169-4_146, PS 13, 3' inverted dT): 0.019 nM

CGACAGCATGTATGCACATCT [5169-4_159]
Kd (as 5169-4_146, PS 19, 3' inverted dT): 0.015 nM

CGACAGCATGTATGCACATCT [5169-4_172]
Kd (as 5169-4_146, PS 1, 3' inverted dT): 0.013 nM

CGACAGCATGTATGCACATCT [5169-4_173]
Kd (as 5169-4_146, PS 4, 3' inverted dT): 0.0091 nM

CGACAGCATGTATGCACATCT [5169-4_175]
Kd (as 5169-4_146, PS 15, 3' inverted dT): 0.0069 nM

CGACAGCATGTATGCACATCT [5169-4_176]
Kd (as 5169-4_146, PS 17, 3' inverted dT): 0.014 nM

CGACAGCATGTATGCACATCT [5169-4_177]
Kd (as 5169-4_146, PS 20, 3' inverted dT): 0.0072 nM

CGACAGCATGTATGCACATCT [5169-4_178]
Kd (as 5169-4_146, PS 6, 3' inverted dT): 0.011 nM

CGACAGCATGTATGCACATCT [5169-4_179]
Kd (as 5169-4_146, PS 14, 3' inverted dT): 0.0077 nM

CGACAGCATGTATGCACATCT [5169-4_180]
Kd (as 5169-4_146, PS 16, 3' inverted dT): 0.02 nM

CGACAGCATGTATGCACATCT [5169-4_181]
Kd (as 5169-4_146, PS 18, 3' inverted dT): 0.021 nM

CGACAGCATGTATGCACATCT [5169-4_182]
Kd (as 5169-4_146 plus PS 3' of 9,10,11,12, 3'-idT): 0.039 nM

CGACAGCATGTATGCACATCTA [5169-4_25]
Kd (NapdU at P): 0.02 nM
